Assay results as given in patent publication US8241610B2, “Adjuvant combinations of liposomes and mycobacterial lipids for immunization compositions and vaccines” (Statens Serum Institut, priority 2003, dated 2012).

Tests used:
[1] = system: blood lymphocytes; experiment: IFN-gamma release from blood lymphocytes of immunized mice re-stimulated in vitro with antigen (ELISA); settings: mouse, in vivo, sc
[2] = system: antigen-specific IgG; design: species or system mice; settings: mouse, in vivo, sc

Row | Molecule | Immune response: release of IFN-gamma from blood lymphocytes [1] | IgG1, antigen-specific levels (midpoint titres) [2] | IgG2a, antigen-specific levels (midpoint titres) [2]
1 | Tetanus toxoid: Tetanus toxoid from Statens Serum Institut; given in total lipids/DDA | 52500 ± 13500 | – | –
2 | OVA: Ovalbumin, Sigma Aldrich; given in total lipids/DDA (protein, UniProt P01012 2-386, looked up) Ovalbumin: GSIGAASMEFCFDVFKELKVHHANENIFYCPIAIMSALAMVYLGAKDSTRTQINKVVRFDKLPGFGDSIEAQCGTSVNVHSSLRDILNQITKPNDVYSFSLASRLYAEERYPILPEYLQCVKELYRGGLEPINFQTAADQARELINSWVESQTNGIIRNVLQPSSVDSQTAMVLVNAIVFKGLWEKAFKDEDTQAMPFRVTEQESKPVQMMYQIGLFRVASMASEKMKILELPFASGTMSMLVLLPDEVSGLEQLESIINFEKLTEWTSSNVMEERKIKVYLPRMKMEEKYNLTSVLMAMGITDVFSSSANLSGISSAESLKISQAVHAAHAEINEAGREVVGSAEAGVDAASVSEEFRADHPFLFCIKHIATNAVLFFGRCVSP | 793 ± 81 | 2500 | <100
